This is an account of results in PMC3093405, “A Motif Unique to the Human Dead-Box Protein DDX3 Is Important for Nucleic Acid Binding, ATP Hydrolysis, RNA/DNA Unwinding and HIV-1 Replication”.

In this data set the target is DDX3wt (Homo sapiens, UniProt O00571 1-662). Kind of data set: EMSA; no ATP; EMSA: on ice, protein buffer 25 mM Tris-HCl pH 7.5, 0.5 mM DTT, 20% glycerol, 100 mM NaCl plus 5x binding buffer (10% glycerol, 5 mM MgCl2, 2.5 mM EDTA pH 8, 50 mM NaCl, 50 mM Tris-HCl pH 7.5, 10 mM DTT), 0.05 pmol oligo. Filter binding: 10 mM Hepes pH 7.2, 100 mM KCl, 3 mM MgCl2, 5% glycerol, 1 mM DTT, 50 µg/ml salmon sperm DNA, 50 nM dsDNA, 24°C. To be noted: protein: recombinant; tags: N-terminal ~3 kDa peptide with 6xHis; C-terminal KQGCFGG; label: 5' 6-FAM. For orientation: A gel shift assay detects complexes by their altered migration in electrophoresis.
Sequence of DDX3wt (O00571 whole entry): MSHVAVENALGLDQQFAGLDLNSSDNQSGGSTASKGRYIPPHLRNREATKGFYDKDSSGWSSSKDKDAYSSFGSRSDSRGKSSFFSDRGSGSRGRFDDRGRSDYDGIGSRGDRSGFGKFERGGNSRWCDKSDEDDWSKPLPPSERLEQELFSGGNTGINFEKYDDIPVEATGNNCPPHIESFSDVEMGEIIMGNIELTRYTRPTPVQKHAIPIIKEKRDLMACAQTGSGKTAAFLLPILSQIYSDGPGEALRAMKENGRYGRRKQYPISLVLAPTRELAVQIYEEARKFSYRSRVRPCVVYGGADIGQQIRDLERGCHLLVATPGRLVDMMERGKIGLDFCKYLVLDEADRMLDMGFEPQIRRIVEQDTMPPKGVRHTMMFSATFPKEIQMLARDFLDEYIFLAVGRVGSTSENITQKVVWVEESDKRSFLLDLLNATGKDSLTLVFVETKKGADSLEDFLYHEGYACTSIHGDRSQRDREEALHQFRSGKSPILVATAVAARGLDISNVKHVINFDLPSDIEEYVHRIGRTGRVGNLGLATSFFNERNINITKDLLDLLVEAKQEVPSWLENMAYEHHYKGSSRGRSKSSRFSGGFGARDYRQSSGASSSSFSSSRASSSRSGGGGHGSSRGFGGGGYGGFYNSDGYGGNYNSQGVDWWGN

B1: ssDNA (6-FAM d18mer) (ssDNA)
DNA: CTCAACTCAACCCTTCAT
Turning to B1, the binding result is “binds”.

B2: ssRNA (6-FAM r18mer) (ssRNA)
RNA: CCCAAGAACCCAAGGAAC
Turning to B2, the binding result was “binds”.
